Reference: US20120093799A1, “RECOMBINANTLY MODIFIED PLASMIN” (priority 2007, published 2012)
Values joined by “and” are separate entries in the source; they are usually repeats but may differ in a detail not shown here. Equal values may be shown once.

Legend:
[1] = binding of ε-ACA measured by changes in protein fluorescence; conditions: 50 mM Tris, 20 mM NaCl, pH 8.0, 25° C.; 0-50 μM ε-ACA
Description: To further confirm the functionality of kringle 1, the binding of ε-ACA to (TAL6003)-plasminogen was measured by monitoring the associated changes in protein fluorescence as described by Matsuka et al., Eur. J. Biochem. 190: 93-97 (1990) and Douglas et al., J. Biochemistry 41: 3302-3310 (2002), all incorporated herein by reference. Binding of ε-ACA to kringle 1 of (TAL6003)-plasminogen results in a decrease in fluorescence, likely due to quenching of the tryptophan residues which are part of the lysine-binding site.
To monitor this process, 4 μL to 16 μL aliquots of a concentrated solution of ε-ACA were added to 2 mL of 5 μM (TAL6003)-plasminogen in 50 mM Tris buffer containing 20 mM NaCl, pH 8.0, 25° C. The fluorescence was monitored at an excitation wavelength of 298 nm and an emission wavelength of 340 nm in a FLUOROMAX fluorescence spectrophotometer (Jobin Yvon, Inc., Edison, N.J.); after each addition of ε-ACA, the solution was allowed to equilibrate until no further changes in fluorescence were observed.
The resulting fluorescence values were corrected for dilution and plotted versus the concentration of ε-ACA over a range of 0-50 μM ε-ACA.

[2] = binding to lysine-SEPHAROSE 4B column, elution with ε-ACA gradient
Description: FIG. 7 is a chromatogram showing binding of (TAL6003)-plasminogen to lysine-SEPHAROSE™ 4B: 0.5 mg of purified (TAL6003)-plasminogen was applied on the lysine-SEPHAROSE™ 4B column (1×3 cm) equilibrated with Tris-buffered saline, pH 7.4. Bound protein was eluted from the column by a 0-20 mM gradient of ε-aminocaproic acid (ε-ACA) as a single peak. The absorbance at 280 nm and the concentration of ε-ACA, as a function of the effluent volume are presented on the graph.
To confirm the functionality of kringle 1, we determined the binding of TAL6003-plasminogen to lysine-SEPHAROSE™ 4B.

fibrin = fibrin binding microtiter plate assay (activation by tPA and resulting clot lysis)
Description: One property of plasminogen is its ability to bind fibrin. In order to determine whether (TAL6003)-plasminogen retains the ability to interact with fibrin, its fibrin-binding properties was tested in a microtiter plate assay in which binding of (TAL6003)-plasminogen to fibrin was assessed by its subsequent activation by tPA and resulting clot lysis. For this purpose, 100 μL of 5 mg/mL fibrinogen was polymerized with thrombin in each well of a microtiter plate. Various concentrations of (TAL6003)-plasminogen was added on top of the fibrin clots and incubated for 1 hour at 37° C. The plate was washed extensively with PBS while the fibrin clots are still intact and attached to the wells. After washing, a 0.1 mg/mL solution of tPA was added to each well and the plate was incubated 2 hours at 37° C. As a result, some of the clots were completely dissolved and some were partially dissolved, while wells with very low amounts of (TAL6003)-plasminogen and control wells remained practically intact. The degree of fibrinolysis was monitored by measuring the 280 nm absorbance of remainders of the initial clots reconstituted in 1 M NaOH. The absorbance values were plotted as a function of (TAL6003)-plasminogen concentration.

[3] = amidolytic activity with plasmin substrate S-2251, steady-state kinetics; type: biochemical; conditions: substrate S-2251, PBS buffer, pH 7.4, 25° C.; for kcat: for (TAL6003)-plasmin corrected for percent active sites
Description: The amidolytic activity of (TAL6003)-plasmin was examined using the plasmin substrate D-Val-Leu-Lys-p-nitroanilide (S-2251) (DiaPharma, West Chester, Ohio).
Correcting kcat for percent active sites, a kcat of about 725 min^−1 was determined. This value was very close to the value determined in the same assay for full-length plasmin, 820±23 min^−1 and for micro-plasmin (lacking all five kringles), 795±24 min^−1.

α2-antiplasmin [4] = molecular target: T1, α2-antiplasmin (Homo sapiens, UniProt P08697); conditions: from Anonick et al., cited from earlier work
T1 sequence (P08697 40-491): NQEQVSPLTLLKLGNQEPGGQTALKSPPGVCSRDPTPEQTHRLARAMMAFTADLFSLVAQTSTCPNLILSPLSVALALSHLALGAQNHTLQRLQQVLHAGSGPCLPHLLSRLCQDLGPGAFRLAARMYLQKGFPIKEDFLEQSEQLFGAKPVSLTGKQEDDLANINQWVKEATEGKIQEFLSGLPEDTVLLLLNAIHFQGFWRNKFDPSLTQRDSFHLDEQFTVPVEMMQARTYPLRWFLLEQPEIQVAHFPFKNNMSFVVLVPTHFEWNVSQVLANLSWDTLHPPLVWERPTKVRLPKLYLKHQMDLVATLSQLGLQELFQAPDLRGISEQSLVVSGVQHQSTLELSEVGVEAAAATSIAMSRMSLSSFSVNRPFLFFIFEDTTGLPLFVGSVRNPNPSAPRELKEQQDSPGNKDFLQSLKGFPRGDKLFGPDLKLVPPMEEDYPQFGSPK

α2-antiplasmin [5] = molecular target: T1, α2-antiplasmin; assay: rate of inhibition by α2-antiplasmin (method of Wiman and Collen, S-2251 activity at time points); type: biochemical; conditions: 22° C. in PBS buffer, pH 7.4
Description: The rate of inhibition of (TAL6003)-plasmin by α2-antiplasmin was determined to be 1.8±0.06×10^7 M^−1 s^−1 using the method of Wiman and Collen (Wiman, B. and D. Collen, Eur. J. Biochem. 84: 573-578 (1978)) in which plasmin and α2-antiplasmin are mixed then assayed for S-2251 activity at specific time points (Table 3).
Literature values are taken from Anonick, et al., Thrombosis Res. 59: 449 (1990). All rates were measured according to the methods published in Anonick, et al.

| Molecule | Kd [1] | ε-ACA concentration at elution peak from lysine-SEPHAROSE ([2]; 0-20 mM ε-ACA gradient, single peak) | binding to lysine-SEPHAROSE 4B ([2]; column equilibrated with Tris-buffered saline, pH 7.4) | EC50 (fibrin; 1 hour at 37° C. on fibrin clots, then tPA 2 hours, read-out: C50 of fibrin binding) | fibrin binding affinity (fibrin; relative to full-length plasminogen) | Km [3] | kcat [3] | kcat ([3]; listed as full-length plasmin) | rate of inhibition by α2-antiplasmin (literature value, table) (α2-antiplasmin [4]; 22° C. in PBS buffer, pH 7.4) | rate of inhibition by α2-antiplasmin (reported value, text) (α2-antiplasmin [4]; Thrombosis Res. 59: 449 (1990)) | rate of inhibition by α2-antiplasmin (α2-antiplasmin [5]) |
| --- | --- | --- | --- | --- | --- | --- | --- | --- | --- | --- | --- |
| (TAL6003)-plasminogen: recombinant plasminogen deletion mutant, single kringle plus serine protease domain, amino acid sequence SEQ ID NO: 2, expressed in E. coli (protein, Polypeptide having a single N-terminal kringle domain homologous to a kringle domain of a native human plasminogen) MRDVVLFEKKVYLSECKTGNGKNYRGTMSKTKNGITCQKWSSTSPHRPRFSPATHPSEGLEENYCRNPDNDPQGPWCYTTDPEKRYDYCDVPQCAAPSFDCGKPQVEPKKCPGRVVGGCVAHPHSWPWQVSLRTRFGMHFCGGTLISPEWVLTAAHCLEKSPRPSSYKVILGAHQEVNLEPHVQEIEVSRLFLEPTRKDIALLKLSSPAVITDKVIPACLPSPNYVVADRTECFITGWGETQGTFGAGLLKEAQLPVIENKVCNRYEFLNGRVQSTELCAGHLAGGTDSCQGDSGGPLVCFEKDKYILQGVTSWGLGCARPNKPGVYVRVSRFVTWIEGVMRNN | ~19 µM | about 4 mM | bound to lysine-SEPHAROSE™ | ~0.3 µM | comparable to that of full-length plasminogen | – | – | – | – | – | – |
| plasmin: native full-length human plasmin with five kringle domains and serine protease domain (protein, UniProt P00747 20-580; P00747 581-810, looked up, plasmin, native full-length human plasmin with five kringle domains and serine protease domain) Plasmin heavy chain A: EPLDDYVNTQGASLFSVTKKQLGAGSIEECAAKCEEDEEFTCRAFQYHSKEQQCVIMAENRKSSIIIRMRDVVLFEKKVYLSECKTGNGKNYRGTMSKTKNGITCQKWSSTSPHRPRFSPATHPSEGLEENYCRNPDNDPQGPWCYTTDPEKRYDYCDILECEEECMHCSGENYDGKISKTMSGLECQAWDSQSPHAHGYIPSKFPNKNLKKNYCRNPDRELRPWCFTTDPNKRWELCDIPRCTTPPPSSGPTYQCLKGTGENYRGNVAVTVSGHTCQHWSAQTPHTHNRTPENFPCKNLDENYCRNPDGKRAPWCHTTNSQVRWEYCKIPSCDSSPVSTEQLAPTAPPELTPVVQDCYHGDGQSYRGTSSTTTTGKKCQSWSSMTPHRHQKTPENYPNAGLTMNYCRNPDADKGPWCFTTDPSVRWEYCNLKKCSGTEASVVAPPPVVLLPDVETPSEEDCMFGNGKGYRGKRATTVTGTPCQDWAAQEPHRHSIFTPETNPRAGLEKNYCRNPDGDVGGPWCYTTNPRKLYDYCDVPQCAAPSFDCGKPQVEPKKCPGR Plasmin light chain B: VVGGCVAHPHSWPWQVSLRTRFGMHFCGGTLISPEWVLTAAHCLEKSPRPSSYKVILGAHQEVNLEPHVQEIEVSRLFLEPTRKDIALLKLSSPAVITDKVIPACLPSPNYVVADRTECFITGWGETQGTFGAGLLKEAQLPVIENKVCNRYEFLNGRVQSTELCAGHLAGGTDSCQGDSGGPLVCFEKDKYILQGVTSWGLGCARPNKPGVYVRVSRFVTWIEGVMRNN | – | – | – | – | – | 220 ± 9 µM | 13.7 ± 0.383 s⁻¹ | 13.7 ± 0.383 s⁻¹ | 2.5 ± 0.5 × 10^7 M^−1 s^−1 | 2.5×10^7 M^−s^−1 | – |
| micro-plasmin: plasmin species lacking all five kringles (protein) APSFDCGKPQVEPKKCPGRVVGGCVAHPHSWPWQVSLRTRFGMHFCGGTLISPEWVLTAAHCLEKSPRPSSYKVILGAHQEVNLEPHVQEIEVSRLFLEPTRKDIALLKLSSPAVITDKVIPACLPSPNYVVADRTECFITGWGETQGTFGAGLLKEAQLPVIENKVCNRYEFLNGRVQSTELCAGHLAGGTDSCQGDSGGPLVCFEKDKYILQGVTSWGLGCARPNKPGVYVRVSRFVTWIEGVMRNN | – | – | – | – | – | 145 ± 13 µM | 13.2 ± 0.4 s⁻¹ | – | – | – | 1.8 ± 0.2 × 10^5 M^−1 s^−1 |
| mini-plasmin: activated mini-plasminogen; domain composition K5-SP (kringle 5 and serine protease domain) (protein) VAPPPVVLLPDVETPSEEDCMFGNGKGYRGKRATTVTGTPCQDWAAQEPHRHSIFTPETNPRAGLEKNYCRNPDGDVGGPWCYTTNPRKLYDYCDVPQCAAPSFDCGKPQVEPKKCPGRVVGGCVAHPHSWPWQVSLRTRFGMHFCGGTLISPEWVLTAAHCLEKSPRPSSYKVILGAHQEVNLEPHVQEIEVSRLFLEPTRKDIALLKLSSPAVITDKVIPACLPSPNYVVADRTECFITGWGETQGTFGAGLLKEAQLPVIENKVCNRYEFLNGRVQSTELCAGHLAGGTDSCQGDSGGPLVCFEKDKYILQGVTSWGLGCARPNKPGVYVRVSRFVTWIEGVMRNN | – | – | – | – | – | 160 ± 30 µM | 12.8 ± 1.17 s⁻¹ | – | – | – | 2.4×10^5 M^−1 s^−1 and 2.4 ± 0.5 × 10^5 M^−1 s^−1 |
